The text below walks through data of article PMC6398608 (Nature medicine, 2018).

Assay [1] addresses IL-2 receptor beta/gamma (Homo sapiens) (UniProt P14784). The settings on record: cited from earlier work.
In assay [2] the target is human interleukin-2 (recombinant IL-2, Humanzyme) (human, UniProt P60568). The experiment in a line: SPR.
In assay [3] the target is human IL-2 crystallised with the F5111 Fab (human, UniProt P60568). The assay can be described thus: crystal structure.

A word on the Kd: it is the constant that tells how readily two partners part at equilibrium.

Sequence of human interleukin-2 (recombinant IL-2, Humanzyme) (P60568 21-153): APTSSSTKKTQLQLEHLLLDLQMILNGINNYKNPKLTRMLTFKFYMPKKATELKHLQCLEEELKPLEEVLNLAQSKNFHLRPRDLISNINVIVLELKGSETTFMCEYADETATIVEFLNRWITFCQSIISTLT
Sequence of human IL-2 crystallised with the F5111 Fab (P60568 21-153): as above
Sequence of IL-2 receptor beta/gamma (Homo sapiens) (P14784 27-240, chain 1 of 2): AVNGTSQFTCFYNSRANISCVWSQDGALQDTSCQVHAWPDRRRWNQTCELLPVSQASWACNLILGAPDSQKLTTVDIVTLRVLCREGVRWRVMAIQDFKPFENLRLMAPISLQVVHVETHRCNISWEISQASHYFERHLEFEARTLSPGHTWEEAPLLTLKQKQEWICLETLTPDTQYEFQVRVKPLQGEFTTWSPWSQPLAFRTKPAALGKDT
Sequence of IL-2 receptor beta/gamma (Homo sapiens) (P31785 23-262, chain 2 of 2, further chain): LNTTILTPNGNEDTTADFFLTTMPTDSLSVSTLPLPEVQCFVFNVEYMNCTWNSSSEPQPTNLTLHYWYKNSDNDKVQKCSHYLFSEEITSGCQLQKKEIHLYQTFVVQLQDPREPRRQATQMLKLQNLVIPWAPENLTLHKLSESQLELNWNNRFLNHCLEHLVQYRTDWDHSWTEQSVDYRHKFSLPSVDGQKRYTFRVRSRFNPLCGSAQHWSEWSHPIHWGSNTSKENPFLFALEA

Consider IL-2 (from UniProt P60568), for which the Kd in assay [1] was 1 nM.

B1: F5111, fully human anti-human IL-2 IgG (antibody, V domains shown)
VH: QLQLQESGPGLVKPSQTLSLTCTVSGGSISSGGYYWSWIRQHPGKGLEWIGYIYYSGSTYYNPSLKSRVTISVDTSKNQFSLKLSSVTAADTAVYYCARTPTVTGDWFDPWGRGTLVTVSS
VL: NFMLTQPHSVSESPGKTVTISCTRSSGSIASNYVQWYQQRPGSSPTTVIYEDNQRPSGVPDRFSGSIDSSSNSASLTISGLKTEDEADYYCQSYDSSNVVFGGGTKLTVL
On to B1, for which, in assay [2], the binding result was “binds”.

B2: F5111 Fab (Fab, V domains shown)
VH: QLQLQESGPGLVKPSQTLSLTCTVSGGSISSGGYYWSWIRQHPGKGLEWIGYIYYSGSTYYNPSLKSRVTISVDTSKNQFSLKLSSVTAADTAVYYCARTPTVTGDWFDPWGRGTLVTVSS
VL: NFMLTQPHSVSESPGKTVTISCTRSSGSIASNYVQWYQQRPGSSPTTVIYEDNQRPSGVPDRFSGSIDSSSNSASLTISGLKTEDEADYYCQSYDSSNVVFGGGTKLTVL
B2: the binding result in assay [3] is “binds”.
